Measured values reported in the supplement of paper PMC11246515.
± gives the standard deviation of the averaged measurements.

Assay: total protein half-life in vivo (active degradation + dilution); higher = more stable protein
[1] = E. coli NCM3722 delta-clpP delta-lon delta-hslV, growth: N-lim chemostat, doubling time 6 h
[2] = E. coli NCM3722 delta-clpP, growth: N-lim chemostat, doubling time 6 h
[3] = E. coli NCM3722 delta-hslV, growth: N-lim chemostat, doubling time 6 h
[4] = E. coli NCM3722 delta-lon, growth: N-lim chemostat, doubling time 6 h
[5] = E. coli NCM3722 delta-smpB, growth: N-lim chemostat, doubling time 6 h
[6] = wild type E. coli NCM3722, growth: C-lim chemostat, doubling time 3 h
[7] = wild type E. coli NCM3722, growth: C-lim chemostat, doubling time 6 h
[8] = wild type E. coli NCM3722, growth: C-lim chemostat, doubling time 12 h
[9] = wild type E. coli NCM3722, growth: N-lim chemostat, doubling time 6 h
[10] = wild type E. coli NCM3722, growth: N-lim chemostat, doubling time 12 h
[11] = wild type E. coli NCM3722, growth: P-lim chemostat, doubling time 6 h
[12] = wild type E. coli NCM3722, growth: P-lim chemostat, doubling time 12 h

Sequence | total protein half-life in vivo [1] [h] | total protein half-life in vivo [2] [h] | total protein half-life in vivo [3] [h] | total protein half-life in vivo [4] [h] | total protein half-life in vivo [5] [h] | total protein half-life in vivo [6] [h] | total protein half-life in vivo [7] [h] | total protein half-life in vivo [8] [h] | total protein half-life in vivo [9] [h] | total protein half-life in vivo [10] [h] | total protein half-life in vivo [11] [h] | total protein half-life in vivo [12] [h]
MSVVPVADVLQGRVAVDSEVTVRGWVRTRRDSKAGISFLAVYDGSCFDPVQAVINNSLPNYNEDVLRLTTGCSVIVTGKVVASPGQGQQFEIQASKVEVAGWVEDPDTYPMAAKRHSIEYLREVAHLRPRTNLIGAVARVRHTLAQALHRFFNEQGFFWVSTPLITASDTEGAGEMFRVSTLDLENLPRNDQGKVDFDKDFFGKESFLTVSGQLNGETYACALSKIYTFGPTFRAENSNTSRHLAEFWMLEPEVAFANLNDIAGLAEAMLKYVFKAVLEERADDMKFFAERVDKDAVSRLERFIEADFAQVDYTDAVTILENCGRKFENPVYWGVDLSSEHERYLAEEHFKAPVVVKNYPKDIKAFYMRLNEDGKTVAAMDVLAPGIGEIIGGSQREERLDVLDERMLEMGLNKEDYWWYRDLRRYGTVPHSGFGLGFERLIAYVTGVQNVRDVIPFPRTPRNASF [P0A8M0] | 5.93 ± 0.36 | 5.65 ± 0.14 | 5.29 ± 0.32 | 6.11 ± 0.23 | 5.45 ± 0.33 | 3.23 ± 0.51 | 6.37 ± 0.33 | 11.55 ± 0.055 | 5.338 ± 0.0091 | 9.553 ± 0.028 | 6.83 ± 0.74 | 12.9 ± 0.18
MSWIERIKSNITPTRKASIPEGVWTKCDSCGQVLYRAELERNLEVCPKCDHHMRMTARNRLHSLLDEGSLVELGSELEPKDVLKFRDSKKYKDRLASAQKETGEKDALVVMKGTLYGMPVVAAAFEFAFMGGSMGSVVGARFVRAVEQALEDNCPLICFSASGGARMQEALMSLMQMAKTSAALAKMQERGLPYISVLTDPTMGGVSASFAMLGDLNIAEPKALIGFAGPRVIEQTVREKLPPGFQRSEFLIEKGAIDMIVRRPEMRLKLASILAKLMNLPAPNPEAPREGVVVPPVPDQEPEA [P0A9Q5] | 5.95 ± 0.21 | 6.46 ± 0.77 | 6.167 ± 0.012 | 5.92 ± 0.97 | 5.66 ± 0.42 | 3.03 ± 0.31 | 6.15 ± 0.42 | 11.2 ± 0.44 | 6.06 ± 0.44 | 12.1 ± 0.061 | 5.81 ± 0.093 | 12.3 ± 0.26
MSYQPQTEAATSRFLNVEEAGKTLRIHFNDCGQGDETVVLLHGSGPGATGWANFSRNIDPLVEAGYRVILLDCPGWGKSDSVVNSGSRSDLNARILKSVVDQLDIAKIHLLGNSMGGHSSVAFTLKWPERVGKLVLMGGGTGGMSLFTPMPTEGIKRLNQLYRQPTIENLKLMMDIFVFDTSDLTDALFEARLNNMLSRRDHLENFVKSLEANPKQFPDFGPRLAEIKAQTLIVWGRNDRFVPMDAGLRLLSGIAGSELHIFRDCGHWAQWEHADAFNQLVLNFLARP | 5.3 ± 0.56 | 2.05 ± 0.77 | 2.34 ± 0.87 | 2.71 | 2.32 ± 0.21 | 1.42 ± 0.3 | 2.67 ± 0.065 | 4.07 | 1.93 | 3.13 | 3.21 | 5.69 ± 1.3
MSYSNILVAVAVTPESQQLLAKAVSIARPVKGHISLITLASDPEMYNQLAAPMLEDLRSVMHEETQSFLDKLIQDAGYPVDKTFIAYGELSEHILEVCHKHHFDLVICGNHNHSFFSRASCSAKRVIASSEVDVLLVPLTGD | 4.56 ± 0.81 | 3.97 | 4.06 | 4.66 ± 0.43 | 3.93 ± 0.25 | 3.26 ± 0.33 | 3.71 | 9.83 ± 3.1 | 4.07 | 6.65 | 5.2 | 11.8 ± 1.2
MSYTPMSDLGQQGLFDITRTLLQQPDLASLCEALSQLVKRSALADNAAIVLWQAQTQRASYYASREKDTPIKYEDETVLAHGPVRSILSRPDTLHCSYEEFCETWPQLDAGGLYPKFGHYCLMPLAAEGHIFGGCEFIRYDDRPWSEKEFNRLQTFTQIVSVVTEQIQSRVVNNVDYELLCRERDNFRILVAITNAVLSRLDMDELVSEVAKEIHYYFDIDDISIVLRSHRKNKLNIYSTHYLDKQHPAHEQSEVDEAGTLTERVFKSKEMLLINLHERDDLAPYERMLFDTWGNQIQTLCLLPLMSGDTMLGVLKLAQCEEKVFTTTNLNLLRQIAERVAIAVDNALAYQEIHRLKERLVDENLALTEQLNNVDSEFGEIIGRSEAMYSVLKQVEMVAQSDSTVLILGETGTGKELIARAIHNLSGRNNRRMVKMNCAAMPAGLLESDLFGHERGAFTGASAQRIGRFELADKSSLFLDEVGDMPLELQPKLLRVLQEQEFERLGSNKIIQTDVRLIAATNRDLKKMVADREFRSDLYYRLNVFPIHLPPLRERPEDIPLLAKAFTFKIARRLGRNIDSIPAETLRTLSNMEWPGNVRELENVIERAVLLTRGNVLQLSLPDIVLPEPETPPAATVVALEGEDEYQLIVRVLKETNGVVAGPKGAAQRLGLKRTTLLSRMKRLGIDKSALI | 6.33 ± 0.39 | 4.33 ± 0.27 | 3.33 ± 0.097 | 5.42 ± 0.29 | 3.22 ± 0.57 | 2.4 ± 0.24 | 5.33 ± 1.1 | 7.11 ± 0.98 | 3.48 ± 0.2 | 8.1 ± 4.8 | 2.84 | 5.132 ± 0.02
MTAIAPVITIDGPSGAGKGTLCKAMAEALQWHLLDSGAIYRVLALAALHHHVDVASEDALVPLASHLDVRFVSTNGNLEVILEGEDVSGEIRTQEVANAASQVAAFPRVREALLRRQRAFRELPGLIADGRDMGTVVFPDAPVKIFLDASSEERAHRRMLQLQEKGFSVNFERLLAEIKERDDRDRNRAVAPLVPAADALVLDSTTLSIEQVIEKALQYARQKLALA [P0A6I0] | 4.56 ± 0.24 | 4.93 ± 0.48 | 4.14 ± 0.16 | 4.79 ± 0.34 | 3.86 ± 0.083 | 3.05 ± 0.14 | 5.44 ± 0.4 | 9.23 ± 1.1 | 4.15 ± 0.046 | 6.34 ± 1.1 | 4.71 ± 0.26 | 9.34 ± 0.78
